This is an account of results in the supplement of paper PMC9233669.

In series [1] the test system is biotinyl-Phe-oxazolone. The experiment in a line: self-aminoacylation, catalytic enhancement (BFO) (fold over background); higher = more active; k-Seq, kA / k0A0; sequences stand for … in GGGAAUGGAUCCACAUCUACGAAUUC…UUCACUGCAGACUUGACGAAGCUG
The method in brief:
(§1)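 Mutagenized RNA pools with a 21-nt variable region (0.43 μM) were reacted with each biotinyl-aminoacyl-oxazolone at 2–1250 μM for 90 minutes at room temperature, in 50 μL HEPES/NaCl/KCl/MgCl2/CaCl2 buffer containing 5% acetonitrile at pH 6.9–7.0. RNA captured on streptavidin was quantified by triplicate qPCR and by Illumina sequencing. The fraction reacted for each sequence was fit to a pseudo-first-order model with bootstrapping, and catalytic enhancement is the median kA divided by the uncatalyzed rate, taken as the low-activity peak of a bimodal Gaussian fit.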

Series [2] has as its system biotinyl-Trp-oxazolone. Briefly: self-aminoacylation, catalytic enhancement (BWO) (fold over background); higher = more active; k-Seq, kA / k0A0; sequences stand for … in GGGAAUGGAUCCACAUCUACGAAUUC…UUCACUGCAGACUUGACGAAGCUG
In outline: as §1

Variants at the floor of the assay were thinned out.

In the case of “CUACUUCAAUCAAUCGGUCAG [Fam1A.1 aminoacylation ribozyme variant]”, the figures for the self-aminoacylation in series [1] and in series [2] were 7.4 and 3.51, respectively.
For “CCCUACUUCAAGCAAUCGGUC [Fam1B.1 aminoacylation ribozyme variant]” the same measures were 73.5 and 33.8.
On to “CUACUUCAACCAAUCGGUCUA [Fam1A.1 aminoacylation ribozyme variant]”, for which the self-aminoacylation was determined as 11.9 in series [1] and 7 in series [2].
For “UAACACUUCAAGCAAUCGGUC [Fam1B.1 aminoacylation ribozyme variant]” the same measures were 25.6 and 13.3.
The corresponding values for “CCACAGUUCAAGCAAUCGGUC [Fam1B.1 aminoacylation ribozyme variant]” are 5.12 and 3.69.
On to “CGACCUCAAACAAUCGGUCUG [Fam1A.1 aminoacylation ribozyme variant]”, for which the self-aminoacylation in series [1] amounted to 3.54; in series [2], 4.64.
The corresponding values for “AUAAUUCAAACAAUCGGUCUG [Fam1A.1 aminoacylation ribozyme variant]” are 4.88 and 2.97.
Take “CUAGUUCAAACAAUCGGUCGG [Fam1A.1 aminoacylation ribozyme variant]”: the self-aminoacylation in series [1] is 4.12; in series [2] it was 2.94.
Turning to “ACAUACUUCAAGCAAUCGGUC [Fam1B.1 aminoacylation ribozyme variant]”, the self-aminoacylation in series [1] amounted to 10.3; in series [2], 5.65.
Take “CUACUUCAAUCAAUCGGUCCG [Fam1A.1 aminoacylation ribozyme variant]”: the self-aminoacylation in series [1] worked out at 6.48; in series [2] it was 4.75.
The corresponding values for “CUACUUCAAACAAUCGGUCGG [Fam1A.1 aminoacylation ribozyme variant]” are 27.4 and 17.3.
For “AAGUGUGCUAAUAGUCGGAAG [Fam3.1 aminoacylation ribozyme variant]”, the self-aminoacylation turned out to be 11 in series [1] and 3.96 in series [2].
Turning to “CUAGUUCAAACAAUCAGUCUG [Fam1A.1 aminoacylation ribozyme variant]”, the self-aminoacylation turned out to be 5.02 in series [1] and 2.15 in series [2].
For “CCACACUUCAACAAAUCGGUC [Fam1B.1 aminoacylation ribozyme variant]” the same measures were 11.5 and 7.95.
The corresponding values for “CUACACUUCAAGAAAUCGGUC [Fam1B.1 aminoacylation ribozyme variant]” are 8.72 and 5.31.
Take “CCACAAUUCAAUCAAUCGGUC [Fam1B.1 aminoacylation ribozyme variant]”: the self-aminoacylation in series [1] came out at 10.8; in series [2] it was 5.08.
The corresponding values for “CUACUUCAACCAAUCGGUCAG [Fam1A.1 aminoacylation ribozyme variant]” are 6.18 and 3.33.
For the sequence “CCACACUCCAAUCAAUCGGUC [Fam1B.1 aminoacylation ribozyme variant]”, the self-aminoacylation in series [1] came to 5.95; in series [2], 3.48.
The corresponding values for “CGACUUCAAAUAAUCGGUCUG [Fam1A.1 aminoacylation ribozyme variant]” are 16.2 and 14.6.
For “CUACUUCAAACAAUCGGGCUG [Fam1A.1 aminoacylation ribozyme variant]” the same measures were 13.2 and 9.43.
The corresponding values for “CUACUUCAAAUAAUCGGUCUC [Fam1A.1 aminoacylation ribozyme variant]” are 15.6 and 7.99.
For the sequence “AAGUUCGCUAAUAGUCGUAAG [Fam3.1 aminoacylation ribozyme variant]”, the self-aminoacylation in series [1] is 13.7; in series [2] it was 4.33.
For “AUUCACCUAGGUCAUUAGGUG [Fam2.2 aminoacylation ribozyme variant]”, the self-aminoacylation in series [2] was determined as 2.24.
For “CUACCUCCAACAAUCGGUCUG [Fam1A.1 aminoacylation ribozyme variant]”, the self-aminoacylation worked out at 4.71 in series [1] and 3.94 in series [2].
For “UUACUUCAACCAAUCGGUCUG [Fam1A.1 aminoacylation ribozyme variant]” the same measures were 16.2 and 11.2.
Consider “UAGUUUGCUAACAGUCGCAAG [Fam3.1 aminoacylation ribozyme variant]”, for which the results for the self-aminoacylation in series [1] and in series [2] were 5.84 and 3.08, respectively.
In the case of “AAGUAUGCUAAAAGUCGCAAG [Fam3.1 aminoacylation ribozyme variant]”, the self-aminoacylation in series [1] amounted to 8.97; in series [2], 3.97.
“UCACACUUCAAGCAAUCGGCC [Fam1B.1 aminoacylation ribozyme variant]”: the self-aminoacylation in series [1] came to 4.64; in series [2], 4.
The corresponding values for “CUCAUUCAAACAAUCGGUCUG [Fam1A.1 aminoacylation ribozyme variant]” are 11.7 and 7.42.
The corresponding values for “AAGUUUGAUUAUAGUCGCAAG [Fam3.1 aminoacylation ribozyme variant]” are 2.29 and 2.07.
Consider “AAGUUUGCUAAUUGUCGCAAC [Fam3.1 aminoacylation ribozyme variant]”, for which, in series [2], the self-aminoacylation was 2.13.
Regarding “CCACACUUGAAGCAUUCGGUC [Fam1B.1 aminoacylation ribozyme variant]”, the self-aminoacylation was determined as 3.66 in series [1] and 2.09 in series [2].
As to “CUCCUUCAAACAAUCGGUCUU [Fam1A.1 aminoacylation ribozyme variant]”, the values for the self-aminoacylation in series [1] and in series [2] were 25.4 and 16.3, respectively.
On to “CUACUUCAAUCAAUCGGACUG [Fam1A.1 aminoacylation ribozyme variant]”, for which the self-aminoacylation in series [1] worked out at 8.24; in series [2] it was 4.18.
As for “CUGCUUCAAUCAAUCGGUCUG [Fam1A.1 aminoacylation ribozyme variant]”, the figures for the self-aminoacylation in series [1] and in series [2] were 44.2 and 26.8, respectively.
As to “CUACUUCAAACACCCGGUCUG [Fam1A.1 aminoacylation ribozyme variant]”, the self-aminoacylation in series [2] turned out to be 2.08.
With “AAGUCGGCUAAUAGUCGCAAG [Fam3.1 aminoacylation ribozyme variant]”, the self-aminoacylation in series [1] was 9.73; in series [2], 4.2.
The corresponding values for “CUACUUCAAUCAAUCGGUCUC [Fam1A.1 aminoacylation ribozyme variant]” are 25.9 and 14.9.
For the sequence “AAGUAUGCUAAUAGUCGUAAG [Fam3.1 aminoacylation ribozyme variant]”, the self-aminoacylation in series [1] was 33.1; in series [2], 8.96.
Take “AAGUUGGCUAAUAGUCACAAG [Fam3.1 aminoacylation ribozyme variant]”: in series [2], the self-aminoacylation came to 2.29.
In the case of “AAGUUUGCUAAUAGUCGCGAA [Fam3.1 aminoacylation ribozyme variant]”, the self-aminoacylation in series [1] was 6.39; in series [2], 3.37.
Take “ACACACUUCAAGUAAUCGGUC [Fam1B.1 aminoacylation ribozyme variant]”: the self-aminoacylation worked out at 7.88 in series [1] and 6 in series [2].
For “CCACUCUUCAAGCAAUCAGUC [Fam1B.1 aminoacylation ribozyme variant]” the same measures were 8.2 and 2.76.
Consider “GUACUUCAAACAAUCAGUCUG [Fam1A.1 aminoacylation ribozyme variant]”, for which the self-aminoacylation was found to be 19.3 in series [1] and 10.3 in series [2].
Consider “CUGCUCCAAACAAUCGGUCUG [Fam1A.1 aminoacylation ribozyme variant]”, for which the self-aminoacylation in series [1] turned out to be 27; in series [2], 20.3.
“AUUACCCUGGCCGUCGAGUGA [Fam2.1 aminoacylation ribozyme variant]”: the self-aminoacylation is 2.1 in series [1] and 2.4 in series [2].
In the case of “CCAAACUUCAAGGAAUCGGUC [Fam1B.1 aminoacylation ribozyme variant]”, the self-aminoacylation in series [1] was found to be 5.98; in series [2], 5.42.
For “CCACACUUCAAGGAAUCGGUC [Fam1B.1 aminoacylation ribozyme variant]” the same measures were 8.21 and 6.13.
“CCAAUCUUCAAGCAAUCGGUC [Fam1B.1 aminoacylation ribozyme variant]”: the results for the self-aminoacylation in series [1] and in series [2] were 18.1 and 10.7, respectively.
Turning to “AAACACUUCAAGCAAUCGGUC [Fam1B.1 aminoacylation ribozyme variant]”, the self-aminoacylation in series [1] was 18; in series [2], 11.9.
On to “CUACUUCAAGCAAUCGGUCUA [Fam1A.1 aminoacylation ribozyme variant]”, for which the self-aminoacylation is 7.64 in series [1] and 4.06 in series [2].
Consider “AAAUUUGCUAAUAUUCGCAAG [Fam3.1 aminoacylation ribozyme variant]”, for which the self-aminoacylation in series [2] stood at 2.01.
Consider “AUUCACCUAGGUUAUCGGGUU [Fam2.2 aminoacylation ribozyme variant]”, for which the self-aminoacylation in series [1] was determined as 5.07; in series [2], 2.04.
For “CGAGACUUCAAGCAAUCGGUC [Fam1B.1 aminoacylation ribozyme variant]”, the self-aminoacylation in series [1] was found to be 5.77; in series [2], 4.16.
